What was measured:
[1] = tested on: GST-PLCγ; assay: In vitro kinase assay of immunoprecipitated mutant αPDGFRs with exogenous substrate; type: biochemical; details: 292 immunoprecipitates, [32P]-γ ATP, 30° C., 5 min
Procedure: Mutant αPDGFRs were selectively immunoprecipitated with the 292 antibody, and samples representing 2×10^5 cells from 292 antibodies were subjected to an in vitro kinase assay. Immunoprecipitates were preincubated with 2 μg of GST protein for 10 min at 0° C., then 2 μg of Glutathione S-transferase fusion phospholipase C-gamma (GST-PLCγ, an exogenous substrate, 10 μCi of γ-[^32P] ATP (DuPont NEN Research Products, Boston, Mass.), and universal kinase buffer (UKB; 20 mM Pipes, pH 7.0, 10 mM MnCl2, 20 μg/ml aprotinin) were added. The samples were incubated at 30° C. for 5 min. The proteins were separated by 7.5% sodium dodecyl sulfate-polyacrylamide gel electrophoresis (SDS-PAGE), the gel was dried, and the radiolabeled protein was detected by autoradiography.

[2] = tested on: NIH 3T3 cells; assay: [3H]-thymidine incorporation (entry into S phase) in NIH 3T3 cells expressing mutant receptors; type: cell-based, mouse; details: 10% FBS, 22 hours
Procedure: NIH 3T3 cells expressing either empty vector (EMP) or one of the αPDGFR mutants were trypsinized, resuspended in DMEM with 10% FBS, and plated at a density of 5×10^5 cells/well in 24-well tissue culture plates and cultured overnight. The cells were rinsed twice with phosphate buffered saline (PBS), and serum starved by incubation in 0.5 ml of DMEM with 0.1% FBS and 0.4 mg/ml of bovine serum albumin (BSA; Sigma) for 48 hours. The cells were then exposed to 50 ng/ml of PDGF-AA, 10% Fetal bovine serum (FBS) (v/v), or buffer for 22 hours. The cells were then pulsed for 4 hours in DMEM with 10% FBS containing 0.8 μCi/ml of [^3H]-thymidine (DuPont NEN Research Products). Finally, the cells were washed twice with PBS, and once with 5% trichloro acetic acid, and lysed in 250 μl of 0.25 N NaOH. The lysates were transferred into scintillation tubes containing 50 μl of 6 N HCl, and then 3 ml of scintillation fluid (ICN) was added. The incorporated radioactivity of [^3H]-thymidine uptake was quantitated in a scintillation counter (Packard, Meriden Conn.). The data were expressed as fold induction, which was calculated by dividing stimulated samples by the buffer control. Each condition was assayed triplicate, and the mean±standard deviation (SD) was obtained.

[3] = tested on: FCX^2, Fα and Fβ cells; assay: Collagen gel contraction assay of cells with no PDGFRs, αPDGFR or βPDGFR; type: cell-based, mouse; details: 1 ng/ml TGFβ1; 24, 48, 72 hours
Procedure: The contraction assay was based on a previously described reference, Skuta, G. et al. (1999) J. Biol. Chem. 274:30163, with the following modifications. Fα cells were suspended in 1.5 mg/ml of neutralized collagen I (Cohesion vitrogen 100, Palo Alto, Calif.) at a density of 10^6 cells/ml, and were transferred into the 24-well plate (Falcon, Franklyn Lakes, N.J.) that had been preincubated with phosphate-buffer saline (PBS) with 5 mg/ml of bovine serum albumin (BSA) overnight. The gel was solidified by incubating at 37° C. for 90 minutes, and then the well was flooded with DMEM+5 mg/ml of BSA supplemented with an amount of vitreous such that the final concentration of vitreous in the culture medium was 1, 5 or 20%. […] The media was replaced every 24 hours and the gel diameter was measured after 48 hours. The extent of contraction was calculated by subtracting the diameter of the well at 48 hours from the initial diameter (15 mm). […]
The experiments described in Example 9 (FIG. 7B) were repeated with cells that express the βPDGFR (Fβ) instead of the αPDGFR, or no PDGFRs (FCX^2). Contraction was scored at the 48 hours time point. […]
To more directly test whether TGFβ could moderate contraction of fibroblasts via the αPDGFR, the response of the three cell lines to purified TGFβ was examined. […] The gel diameter was measured after 24, 48, or 72 hours, and the media was replaced every day.

[4] = molecular target: T1, αPDGFR (Homo sapiens, UniProt P16234); assay: Tyrosine phosphorylation of the αPDGFR in TGFβ- or PDGF-treated F cells; type: cell-based; details: Fα cells; 50 ng/ml PDGF-BB 5 minutes or 1 ng/ml TGFβ1 5 minutes to 8 hours
T1 construct: expressed in transfected cells; host or cells: F cells (SV-40 immortalized mouse embryo fibroblasts lacking both PDGFRs), giving Fα
T1 sequence (P16234 24-1089): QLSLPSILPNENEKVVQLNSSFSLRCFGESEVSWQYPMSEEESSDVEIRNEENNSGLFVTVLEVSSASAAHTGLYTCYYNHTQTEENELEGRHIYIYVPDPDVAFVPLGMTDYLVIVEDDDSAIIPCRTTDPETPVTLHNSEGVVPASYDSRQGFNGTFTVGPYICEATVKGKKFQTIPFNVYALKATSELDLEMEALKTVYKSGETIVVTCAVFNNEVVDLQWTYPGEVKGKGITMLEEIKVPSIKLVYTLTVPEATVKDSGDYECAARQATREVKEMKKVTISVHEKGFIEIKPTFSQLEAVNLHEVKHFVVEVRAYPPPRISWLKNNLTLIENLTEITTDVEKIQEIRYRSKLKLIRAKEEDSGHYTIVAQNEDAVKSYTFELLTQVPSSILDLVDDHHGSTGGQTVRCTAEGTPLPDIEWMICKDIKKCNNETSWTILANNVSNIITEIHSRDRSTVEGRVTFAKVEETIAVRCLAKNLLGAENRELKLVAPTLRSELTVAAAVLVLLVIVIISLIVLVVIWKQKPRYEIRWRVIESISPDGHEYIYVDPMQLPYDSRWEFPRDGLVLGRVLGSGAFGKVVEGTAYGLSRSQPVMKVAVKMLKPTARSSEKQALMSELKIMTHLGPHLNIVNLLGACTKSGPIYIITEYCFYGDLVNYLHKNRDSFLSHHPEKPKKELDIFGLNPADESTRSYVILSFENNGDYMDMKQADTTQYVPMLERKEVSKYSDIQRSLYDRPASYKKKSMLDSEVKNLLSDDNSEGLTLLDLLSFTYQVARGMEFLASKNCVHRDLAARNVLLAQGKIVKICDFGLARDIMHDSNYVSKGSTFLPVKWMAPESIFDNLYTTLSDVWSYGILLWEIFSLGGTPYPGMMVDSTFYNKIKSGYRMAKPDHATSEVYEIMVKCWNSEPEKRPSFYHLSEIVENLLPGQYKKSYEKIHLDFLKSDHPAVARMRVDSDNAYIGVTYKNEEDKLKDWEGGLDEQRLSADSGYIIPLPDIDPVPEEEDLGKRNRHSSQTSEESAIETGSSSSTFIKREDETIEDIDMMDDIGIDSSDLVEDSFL
Procedure: To show the effect of TGFβ on αPDGFR, the tyrosine phosphorylation state of the αPDGFR was assayed in TGFβ-treated cells. The F cells with or without PDGFR were grown to 80% confluent and then starved with DMEM containing 1% FBS for 20 hours. Cells were exposed at 37° C. for 5 minutes to either 50 ng/ml of PDGF-BB; with 1 ng/ml of TGFβ1 for 5 minutes, 1 hour, 2 hours, 4 hours, 6 hours or 8 hours; or were left unstimulated. After treatment the cells were washed twice with H/S (20 mM Hepes, pH 7.4, 150 mM NaCl) and then lysed in EB (10 mM Tris-HCl, pH 7.4, 5 mM EDTA, 50 mM NaCl, 50 mM NaF, 1% Triton-X 100, 0.1% BSA, 20 μg/ml aprotinin, 2 mM Na3VO4, 1 mM phenylmethylsulfonyl fluoride; PMSF). Lysates were centrifuged for 15 minutes at 13,000×g, the pellet was discarded and the soluble fraction was used as the total cell lysate. The protein concentration was measured using protein assay kit (Pierce, Rockfield, Ill.) following the manufacture's instructions.
Receptors were immunoprecipitated from the soluble fraction with the 27P antibody (described above). Immune complex was bound to formalin-fixed membranes of Staphylococcus aureus, spun through an EB sucrose gradient, and washed twice with EB, then with PAN (10 mM Pipes, pH 7.0, 100 mM NaCl, 1% aprotinin)+0.5% Nonidet P-40 (NP-40), and finally with PAN. The samples were resuspended in PAN before using for kinase assay or western blotting. […]

[5] = molecular target: T2, βPDGFR (Homo sapiens, UniProt P09619); assay: Tyrosine phosphorylation of the βPDGFR in TGFβ- or PDGF-treated F cells; type: cell-based; details: Fβ cells; 1 ng/ml TGFβ1
T2 construct: expressed in transfected cells; host or cells: F cells (mouse embryo fibroblasts lacking both PDGFRs), giving Fβ
T2 sequence (P09619 33-1106): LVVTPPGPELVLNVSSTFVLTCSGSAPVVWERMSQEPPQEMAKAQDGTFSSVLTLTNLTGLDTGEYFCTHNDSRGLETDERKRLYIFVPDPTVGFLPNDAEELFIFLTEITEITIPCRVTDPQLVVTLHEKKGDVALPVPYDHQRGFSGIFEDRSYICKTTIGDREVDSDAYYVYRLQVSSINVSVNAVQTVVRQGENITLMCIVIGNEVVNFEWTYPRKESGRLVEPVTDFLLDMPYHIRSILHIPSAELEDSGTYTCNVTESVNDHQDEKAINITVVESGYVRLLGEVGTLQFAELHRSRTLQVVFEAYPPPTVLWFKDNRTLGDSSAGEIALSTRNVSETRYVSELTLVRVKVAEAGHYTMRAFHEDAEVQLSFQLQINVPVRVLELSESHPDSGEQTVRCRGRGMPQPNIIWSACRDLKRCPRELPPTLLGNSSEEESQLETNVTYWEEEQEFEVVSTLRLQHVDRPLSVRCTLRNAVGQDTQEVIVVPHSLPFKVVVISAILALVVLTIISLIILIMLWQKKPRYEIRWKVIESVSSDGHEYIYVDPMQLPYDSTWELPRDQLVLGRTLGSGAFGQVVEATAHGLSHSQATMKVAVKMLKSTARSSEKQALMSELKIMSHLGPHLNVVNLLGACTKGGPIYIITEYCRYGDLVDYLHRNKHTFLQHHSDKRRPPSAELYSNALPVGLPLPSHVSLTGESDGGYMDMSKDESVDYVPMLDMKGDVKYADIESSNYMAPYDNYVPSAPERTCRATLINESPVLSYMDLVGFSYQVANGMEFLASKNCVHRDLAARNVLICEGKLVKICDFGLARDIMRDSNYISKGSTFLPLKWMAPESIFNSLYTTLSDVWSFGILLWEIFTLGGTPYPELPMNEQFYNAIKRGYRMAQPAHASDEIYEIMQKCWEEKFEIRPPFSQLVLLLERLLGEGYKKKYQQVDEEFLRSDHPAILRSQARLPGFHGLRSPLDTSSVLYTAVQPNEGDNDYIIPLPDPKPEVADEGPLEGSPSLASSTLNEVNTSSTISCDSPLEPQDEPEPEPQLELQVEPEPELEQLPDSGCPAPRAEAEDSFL

[6] = tested on: Erk; assay: PDGF-dependent activation of Erk in NIH 3T3 cells expressing mutant receptors (anti-phospho-Erk western blot); type: cell-based, mouse; details: 50 ng/ml PDGF-AA, 5 minutes
Procedure: Cells were stimulated as described in Example 2 and 20 μg of total cell lysate was subjected to western blotting analysis using anti-phospho-Erk or anti-Ras GTP-activating protein antibody as an internal control for the amount of protein. The phospho-extracellular signal related kinase (Erk) rabbit polyclonal antibody was purchased from New England Biolabs (Beverly, Mass.) and used at a dilution of 1:1000.

[7] = tested on: human αPDGFR; assay: Tyrosine phosphorylation of the introduced mutant αPDGFR (292 immunoprecipitation from NIH 3T3 cells); type: cell-based, mouse; details: 292 antibody IP, RIPA lysis; 50 ng/ml PDGF-AA, 5 minutes
Sequence of human αPDGFR (P16234 24-589 limits assumed): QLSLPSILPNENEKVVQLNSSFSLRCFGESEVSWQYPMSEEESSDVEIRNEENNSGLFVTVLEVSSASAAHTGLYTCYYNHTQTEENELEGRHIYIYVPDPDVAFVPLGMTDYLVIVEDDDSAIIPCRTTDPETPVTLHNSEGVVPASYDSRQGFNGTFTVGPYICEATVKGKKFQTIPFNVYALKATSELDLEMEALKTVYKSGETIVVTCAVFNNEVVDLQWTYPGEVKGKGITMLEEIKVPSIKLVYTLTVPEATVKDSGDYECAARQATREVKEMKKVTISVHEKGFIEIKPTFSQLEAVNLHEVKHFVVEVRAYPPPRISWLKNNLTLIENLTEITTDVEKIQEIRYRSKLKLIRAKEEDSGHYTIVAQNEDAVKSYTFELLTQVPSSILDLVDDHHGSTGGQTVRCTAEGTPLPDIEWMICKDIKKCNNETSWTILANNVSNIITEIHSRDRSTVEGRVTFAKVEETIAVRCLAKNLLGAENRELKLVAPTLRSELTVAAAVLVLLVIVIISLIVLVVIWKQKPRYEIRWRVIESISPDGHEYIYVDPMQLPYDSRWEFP
Text: To characterize the kinase activity of the point mutants, these were immunoprecipitated using the 292 monoclonal antibody, which selectively recognizes an extracellular epitope of the introduced receptor and recognizes all of the mutants used in this study. While PDGF-stimulation is expected to dimerize mutant and wild type receptors, lysing cells in RIPA buffer breaks receptor dimers. Kelly, J. D. et al. (1991) J. Biol. Chem. 266:8987. Consequently, 292 immunoprecipitates are not expected to contain co-immunoprecipitating WT receptor. NIH 3T3 cells expressing the empty vector or receptor mutants were left resting, or stimulated with 50 ng/ml of PDGF-AA for 5 minutes, the cells were lysed in RIPA buffer and the resulting samples were subjected to anti-phosphotyrosine and anti-αPDGFR western blot analysis. In this series of experiments, we included the previously described Fα cell line, which is an NIH 3T3-like cell line that express the introduced human αPDGFR. Andrews, A. et al (1999) Invest. Ophthalmol. Vis. Sci. 40:2683. This cell line was included as a positive control, since the WT receptor in NIH 3T3 cells is mouse, and not recognized by the 292 antibody. As expected, the αPDGFR was immunoprecipitated from the Fα cells, but not the NIH 3T3 cells expressing the empty vector, and PDGF stimulation increased the phosphotyrosine content of the receptor (FIG. 3A). […]

Row | Substance | kinase activity towards exogenous substrate GST-PLCγ [1] | [3H]-thymidine incorporation in response to serum [2] | TGFβ-induced contraction [3] | tyrosine phosphorylation of the αPDGFR [4] | tyrosine phosphorylation of the βPDGFR [5] | PDGF-dependent activation of Erk [6] | basal or PDGF-stimulated tyrosine phosphorylation of the mutant receptor [7]
1 | V859M: human αPDGFR point mutant, valine at position 859 changed to methionine; SEQ ID NO: 10 | more active than the WT receptor | somewhat elevated response to serum | – | – | – | – | –
2 | TGFβ: recombinant human TGFβ1 purchased from R & D systems | – | – | induced contraction of the Fα cells to a much greater extent than either the Fβ cells or the cells that do not express any PDGFR | increased phosphorylation of the αPDGFR | very modest or undetectable tyrosine phosphorylation | – | –
3 | D818N: human αPDGFR point mutant, aspartic acid at position 818 changed to asparagine; SEQ ID NO: 8 | not phosphorylated | – | – | – | – | failed to fully activated Erk | no detectable

Source: US6667173B2, “Nucleic acids encoding platelet derived growth factor-alpha receptors” (The Schepens Eye Research Institute, priority 2000, dated 2003)
